From patent publication US20220251595A1, “ENGINEERED ATRLP23 PATTERN RECOGNITION RECEPTORS AND METHODS OF USE” (priority 2019, published 2022) come the findings set out here.

The subject of assay [1] is corn protoplasts. Kind of assay: Calcium burst in transiently transfected corn protoplasts, R-GECO1.2 fluorescence reporter. It is filed as cell-based, Zea mays. The note with it: Example 3, FIG. 4; 1 μM PpNLP20; 40 minutes; 384-well. The source says: Following ligand (also known as elicitor) binding, PRRs are activated and induce a transient increase of cytosolic Ca^2+ concentration as part of a PTI response. […] In a high-throughput method, the kinetics of PRR-dependent transient variation of cytosolic Ca^2+ concentration can be measured with a fluorimeter or luminometer and in microplate formats of 96 or 384 wells.
Fluorescence was monitored using a fluorimeter equipped with a 100 Hz xenon flash lamp with excitation at 556 nm and emission measured at 585 nm for 100 ms, every 22.6 seconds for 42 minutes.
All of the AtRLP23 constructs have an operably linked 2×35S+Ω promoter construct (SEQ ID NO: 72) and an operably linked rbcS terminator (SEQ ID NO: 73)
Fluorescence was monitored using a fluorimeter equipped with a 100 Hz xenon flash lamp with excitation at 556 nm and emission measured at 585 nm for 30 ms, every 20.2 seconds for 40 minutes. For each fluorescence measurement, the transient change in R-GECO1.2 fluorescence (ΔF) are calculated from background corrected intensity values as (F-Fo), where F represents the average fluorescence intensity of the a batch of protoplasts treated with elicitor, and Fo represents the average fluorescence intensity of the same batch of protoplasts treated with a control solution that lacks the elicitor but is otherwise identical or essentially identical in composition to the solution comprising the elicitor.

Assay [2] has as its system corn protoplasts. Kind of assay: Calcium burst in transiently transfected corn protoplasts, apoaequorin luminescence reporter.

B1: AtRLP23-OsXA21-3×FLAG: AtRLP23 apoplastic and eJM domains, OsXA21 TM and cytoplasmic domains, 3×FLAG; SEQ ID NO: 21, 22 (protein)
chain: MSKALLHLHFLSLFLLCCVCHSSIFTLNFHFTGIVACRPHQIQAFTKFTNEFDTRGCNNSDTFNGVWCDNSTGAVAVLQLRKCLSGTLKSNSSLFGFHQLRYVDLQNNNLTSSSLPSGFGNLKRLEGLFLSSNGFLGQVPSSFSNLTMLAQLDLSYNKLTGSFPLVRGLRKLIVLDLSYNHFSGTLNPNSSLFELHQLRYLNLAFNNFSSSLPSKFGNLHRLENLILSSNGFSGQVPSTISNLTRLTKLYLDQNKLTSSFPLVQNLTNLYELDLSYNKFFGVIPSSLLTLPFLAHLALRENNLAGSVEVSNSSTSSRLEIMYLGSNHFEGQILEPISKLINLKHLDLSFLNTSYPIDLKLFSSLKSLRSLDLSGNSISSASLSSDSYIPLTLEMLTLRHCDINEFPNILKTLKELVYIDISNNRMKGKIPEWLWSLPLLQSVTLGNNYFTGFQGSAEILVNSSVLLLYLDSNNFEGALPDLPLSIKGFGVASNSFTSEIPLSICNRSSLAAIDLSYNNFTGPIPPCLRNLELVYLRNNNLEGSIPDALCDGASLRTLDVSHNRLTGKLPRSFVNCSSLKFLSVINNRIEDTFPFWLKALPNLQVLTLRSNRFYGPISPPHQGPLGFPELRIFEISDNKFTGSLPPNYFVNWKASSRTMNQDGGLYMVYEEKLFDEGGYGYTDALDLQYKGLHMEQAKALTSYAAIDFSGNRLEGQIPESIGLLKALIAVNISNNAFTGHIPLSMANLENLESLDMSRNQLSGTIPNGLGSISFLAYINVSHNQLTGEIPQGTQITGQSKSSFEGNAGLCGLPLKESCFGTGAPPMYHQKQEDKEEEEEEEEEEEEVLNGRFPVLPISVSLAAALAILSSLYLLITWHKRTKKGAPSRTSMKGHPLVSYSQLVKATDGFAPTNLLGSGSFGSVYKGKLNIQDHVAVKVLKLENPKALKSFTAECEALRNMRHRNLVKIVTICSSIDNRGNDFKAIVYDFMPNGSLEDWIHPETNDQADQRHLNLHRRVTILLDVACALDYLHRHGPEPVVHCDIKSSNVLLDSDMVAHVGDFGLARILVDGTSLIQQSTSSMGFIGTIGYAAPEYGVGLIASTHGDIYSYGILVLEIVTGKRPTDSTFRPDLGLRQYVELGLHGRVTDVVDTKLILDSENWLNSTNNSPCRRITECIVWLLRLGLSCSQELPSSRTPTGDIIDELNAIKQNLSGLFPVCEGGSLEFSDYKDHDGDYKDHDLDAAAADYKDDDDK
modifications: Fusion protein
Consider B1, for which, in the assay on corn protoplasts [1], the “responsiveness to PpNLP20 treatment compared to AtRLP23-3×FLAG (total transient increase of fluorescence)” value is listed as “increased responsiveness”.

B2: AtRLP23+TM-AtSOBIR1-3×FLAG: AtRLP23 apoplastic, eJM and TM domains, AtSOBIR1 cytoplasmic domain, 3×FLAG; SEQ ID NO: 41, 42 (protein)
chain: MSKALLHLHFLSLFLLCCVCHSSIFTLNFHFTGIVACRPHQIQAFTKFTNEFDTRGCNNSDTFNGVWCDNSTGAVAVLQLRKCLSGTLKSNSSLFGFHQLRYVDLQNNNLTSSSLPSGFGNLKRLEGLFLSSNGFLGQVPSSFSNLTMLAQLDLSYNKLTGSFPLVRGLRKLIVLDLSYNHFSGTLNPNSSLFELHQLRYLNLAFNNFSSSLPSKFGNLHRLENLILSSNGFSGQVPSTISNLTRLTKLYLDQNKLTSSFPLVQNLTNLYELDLSYNKFFGVIPSSLLTLPFLAHLALRENNLAGSVEVSNSSTSSRLEIMYLGSNHFEGQILEPISKLINLKHLDLSFLNTSYPIDLKLFSSLKSLRSLDLSGNSISSASLSSDSYIPLTLEMLTLRHCDINEFPNILKTLKELVYIDISNNRMKGKIPEWLWSLPLLQSVTLGNNYFTGFQGSAEILVNSSVLLLYLDSNNFEGALPDLPLSIKGFGVASNSFTSEIPLSICNRSSLAAIDLSYNNFTGPIPPCLRNLELVYLRNNNLEGSIPDALCDGASLRTLDVSHNRLTGKLPRSFVNCSSLKFLSVINNRIEDTFPFWLKALPNLQVLTLRSNRFYGPISPPHQGPLGFPELRIFEISDNKFTGSLPPNYFVNWKASSRTMNQDGGLYMVYEEKLFDEGGYGYTDALDLQYKGLHMEQAKALTSYAAIDFSGNRLEGQIPESIGLLKALIAVNISNNAFTGHIPLSMANLENLESLDMSRNQLSGTIPNGLGSISFLAYINVSHNQLTGEIPQGTQITGQSKSSFEGNAGLCGLPLKESCFGTGAPPMYHQKQEDKEEEEEEEEEEEEVLNGRAVAIGYGSGLLLGLAIAQVIASYKLIIQAIRGSEKPPGPSIFSPLIKKAEDLAFLENEEALASLEIIGRGGCGEVFKAELPGSNGKIIAVKKVIQPPKDADELTDEDSKFLNKKMRQIRSEINTVGHIRHRNLLPLLAHVSRPECHYLVYEYMEKGSLQDILTDVQAGNQELMWPARHKIALGIAAGLEYLHMDHNPRIIHRDLKPANVLLDDDMEARISDFGLAKAMPDAVTHITTSHVAGTVGYIAPEFYQTHKFTDKCDIYSFGVILGILVIGKLPSDEFFQHTDEMSLIKWMRNIITSENPSLAIDPKLMDQGFDEQMLLVLKIACYCTLDDPKQRPNSKDVRTMLSQIKHSDYKDHDGDYKDHDLDAAAADYKDDDDK
modifications: Fusion protein
Regarding B2, the “responsiveness to PpNLP20 treatment compared to AtRLP23-3×FLAG (total transient increase of fluorescence)” value with corn protoplasts [1] is “increased responsiveness”.

B3: AtRLP23-AtPEPR1-3×FLAG: AtRLP23 apoplastic and eJM domains, AtPEPR1 TM and kinase domains, 3×FLAG; SEQ ID NO: 572, 573 (protein)
chain: MSKALLHLHFLSLFLLCCVCHSSIFTLNFHFTGIVACRPHQIQAFTKFTNEFDTRGCNNSDTFNGVWCDNSTGAVAVLQLRKCLSGTLKSNSSLFGFHQLRYVDLQNNNLTSSSLPSGFGNLKRLEGLFLSSNGFLGQVPSSFSNLTMLAQLDLSYNKLTGSFPLVRGLRKLIVLDLSYNHFSGTLNPNSSLFELHQLRYLNLAFNNFSSSLPSKFGNLHRLENLILSSNGFSGQVPSTISNLTRLTKLYLDQNKLTSSFPLVQNLTNLYELDLSYNKFFGVIPSSLLTLPFLAHLALRENNLAGSVEVSNSSTSSRLEIMYLGSNHFEGQILEPISKLINLKHLDLSFLNTSYPIDLKLFSSLKSLRSLDLSGNSISSASLSSDSYIPLTLEMLTLRHCDINEFPNILKTLKELVYIDISNNRMKGKIPEWLWSLPLLQSVTLGNNYFTGFQGSAEILVNSSVLLLYLDSNNFEGALPDLPLSIKGFGVASNSFTSEIPLSICNRSSLAAIDLSYNNFTGPIPPCLRNLELVYLRNNNLEGSIPDALCDGASLRTLDVSHNRLTGKLPRSFVNCSSLKFLSVINNRIEDTFPFWLKALPNLQVLTLRSNRFYGPISPPHQGPLGFPELRIFEISDNKFTGSLPPNYFVNWKASSRTMNQDGGLYMVYEEKLFDEGGYGYTDALDLQYKGLHMEQAKALTSYAAIDFSGNRLEGQIPESIGLLKALIAVNISNNAFTGHIPLSMANLENLESLDMSRNQLSGTIPNGLGSISFLAYINVSHNQLTGEIPQGTQITGQSKSSFEGNAGLCGLPLKESCFGTGAPPMYHQKQEDKEEEEEEEEEEEEVLNGRIVLIAVLSSLLVLVVVLALVFICLRRRKGRPEKDAYVFTQEEGPSLLLNKVLAATDNLNEKYTIGRGAHGIVYRASLGSGKVYAVKRLVFASHIRANQSMMREIDTIGKVRHRNLIKLEGFWLRKDDGLMLYRYMPKGSLYDVLHGVSPKENVLDWSARYNVALGVAHGLAYLHYDCHPPIVHRDIKPENILMDSDLEPHIGDFGLARLLDDSTVSTATVTGTTGYIAPENAFKTVRGRESDVYSYGVVLLELVTRKRAVDKSFPESTDIVSWVRSALSSSNNNVEDMVTTIVDPILVDELLDSSLREQVMQVTELALSCTQQDPAMRPTMRDAVKLLEDVKHLARSCSSDSVRSDYKDHDGDYKDHDLDAAAADYKDDDDK
modifications: Fusion protein
Consider B3, for which the “Ca^2+ burst in response to all tested NLP peptides” value in the assay on corn protoplasts [2] (Example 6, FIG. 8, CgNLP24b, FgNLP24c, FvNLP24a, SmNLP24) is “Ca^2+ burst”. Also, in the assay on corn protoplasts [2] (FIG. 8, all peptides tested), the “increase in Ca^2+ compared to control buffer treatment” value is on record as “statistically significant”.

B4: AtRLP23-AtEFR-3×FLAG: AtRLP23 apoplastic and eJM domains, AtEFR TM and cytoplasmic domains, 3×FLAG; SEQ ID NO: 17, 18 (protein)
chain: MSKALLHLHFLSLFLLCCVCHSSIFTLNFHFTGIVACRPHQIQAFTKFTNEFDTRGCNNSDTFNGVWCDNSTGAVAVLQLRKCLSGTLKSNSSLFGFHQLRYVDLQNNNLTSSSLPSGFGNLKRLEGLFLSSNGFLGQVPSSFSNLTMLAQLDLSYNKLTGSFPLVRGLRKLIVLDLSYNHFSGTLNPNSSLFELHQLRYLNLAFNNFSSSLPSKFGNLHRLENLILSSNGFSGQVPSTISNLTRLTKLYLDQNKLTSSFPLVQNLTNLYELDLSYNKFFGVIPSSLLTLPFLAHLALRENNLAGSVEVSNSSTSSRLEIMYLGSNHFEGQILEPISKLINLKHLDLSFLNTSYPIDLKLFSSLKSLRSLDLSGNSISSASLSSDSYIPLTLEMLTLRHCDINEFPNILKTLKELVYIDISNNRMKGKIPEWLWSLPLLQSVTLGNNYFTGFQGSAEILVNSSVLLLYLDSNNFEGALPDLPLSIKGFGVASNSFTSEIPLSICNRSSLAAIDLSYNNFTGPIPPCLRNLELVYLRNNNLEGSIPDALCDGASLRTLDVSHNRLTGKLPRSFVNCSSLKFLSVINNRIEDTFPFWLKALPNLQVLTLRSNRFYGPISPPHQGPLGFPELRIFEISDNKFTGSLPPNYFVNWKASSRTMNQDGGLYMVYEEKLFDEGGYGYTDALDLQYKGLHMEQAKALTSYAAIDFSGNRLEGQIPESIGLLKALIAVNISNNAFTGHIPLSMANLENLESLDMSRNQLSGTIPNGLGSISFLAYINVSHNQLTGEIPQGTQITGQSKSSFEGNAGLCGLPLKESCFGTGAPPMYHQKQEDKEEEEEEEEEEEEVLNGRVVSGICIGIASLLLIIIVASLCWFMKRKKKNNASDGNPSDSTTLGMFHEKVSYEELHSATSRFSSTNLIGSGNFGNVFKGLLGPENKLVAVKVLNLLKHGATKSFMAECETFKGIRHRNLVKLITVCSSLDSEGNDFRALVYEFMPKGSLDMWLQLEDLERVNDHSRSLTPAEKLNIAIDVASALEYLHVHCHDPVAHCDIKPSNILLDDDLTAHVSDFGLAQLLYKYDRESFLNQFSSAGVRGTIGYAAPEYGMGGQPSIQGDVYSFGILLLEMFSGKKPTDESFAGDYNLHSYTKSILSGCTSSGGSNAIDEGLRLVLQVGIKCSEEYPRDRMRTDEAVRELISIRSKFFSSKTTITESPRDAPQSSPQEWMLNTDMHTMASDYKDHDGDYKDHDLDAAAADYKDDDDK
modifications: Fusion protein
On to B4, for which, in the assay with corn protoplasts [1], the “responsiveness to PpNLP20 treatment compared to AtRLP23-3×FLAG (total transient increase of fluorescence)” value is reported as “increased responsiveness”.
